T1: wild type full-length cynomolgus monkey CD96 isoform 2 expressed on CHO cells (cynomolgus monkey, UniProt A0A2K5TWV6 22-569)
T1 construct: whole, on cells; also called cynomolgus CD96-CHO cells; cynomolgus CD96-CHO (isoform 2)
T1 sequence: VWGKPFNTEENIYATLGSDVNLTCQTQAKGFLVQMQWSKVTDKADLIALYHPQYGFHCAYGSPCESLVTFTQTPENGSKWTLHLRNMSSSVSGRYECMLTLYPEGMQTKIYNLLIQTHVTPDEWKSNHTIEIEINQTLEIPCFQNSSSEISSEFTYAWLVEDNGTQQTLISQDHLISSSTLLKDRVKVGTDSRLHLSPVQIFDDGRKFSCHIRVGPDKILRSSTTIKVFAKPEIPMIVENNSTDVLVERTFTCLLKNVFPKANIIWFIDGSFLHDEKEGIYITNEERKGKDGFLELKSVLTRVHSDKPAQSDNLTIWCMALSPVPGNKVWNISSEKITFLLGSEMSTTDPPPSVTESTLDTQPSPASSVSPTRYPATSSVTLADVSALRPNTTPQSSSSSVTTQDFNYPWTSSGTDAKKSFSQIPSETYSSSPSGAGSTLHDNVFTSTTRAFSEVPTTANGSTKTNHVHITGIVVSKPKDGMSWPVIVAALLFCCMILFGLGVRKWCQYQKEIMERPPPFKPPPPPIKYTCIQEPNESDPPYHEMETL

T2: wild type full-length human TIGIT expressed on cells (human, UniProt Q495A1 22-244)
T2 construct: whole, on cells; also called human TIGIT-CHO; human TIGIT CHO cells
T2 sequence (looked up): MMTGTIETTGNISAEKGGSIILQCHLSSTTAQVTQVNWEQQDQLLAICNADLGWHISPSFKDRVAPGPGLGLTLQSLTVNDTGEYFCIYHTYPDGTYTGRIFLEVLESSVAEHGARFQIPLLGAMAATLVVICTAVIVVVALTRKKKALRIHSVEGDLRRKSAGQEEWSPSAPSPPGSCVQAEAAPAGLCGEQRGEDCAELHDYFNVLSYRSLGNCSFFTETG

T3: full-length ECD of human TIGIT (His-tagged) (human)
T3 construct: also called His-tagged human TIGIT; human TIGIT extracellular domain
T3 chain: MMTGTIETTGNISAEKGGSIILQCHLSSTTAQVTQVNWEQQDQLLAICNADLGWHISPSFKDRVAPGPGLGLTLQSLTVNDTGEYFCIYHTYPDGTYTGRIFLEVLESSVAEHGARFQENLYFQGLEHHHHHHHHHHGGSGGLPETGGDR


What was measured:
[1] = target: T1, wild type full-length cynomolgus monkey …; assay: flow cytometry on CHO cells expressing cynomolgus CD96 isoform 2, PE anti-human IgG Fc detection
[2] = target: T2, wild type full-length human TIGIT …; assay: flow cytometry on CHO cells expressing human TIGIT, PE anti-human IgG Fc detection
Method: The ability of anti-TIGIT antibodies to bind to wild type human TIGIT expressed on the surface of CHO cells was assessed. Briefly, CHO cells were transfected with a vector encoding wild type human TIGIT (human TIGIT-CHO), and clones stably expressing TIGIT were selected.
For the antibody binding assay, a frozen aliquot of human TIGIT-CHO cells was thawed at 37° C. and then transferred to a tube containing DPBS supplemented with 0.5% Bovine Serum Albumin and 0.05% Sodium Azide (FACS Buffer). Cells were centrifuged at 300 g for five minutes. The supernatant was discarded, and cells resuspended in FACS buffer were seeded in a 96-well U-bottom tissue culture plate at a density of […] cells per well in 50 μL. In a separate microplate, a 2× concentrated intermediate stock of each antibody was prepared. Antibodies were serially diluted 1-to-4 in FACS buffer. A total of 11 working dilutions ranging from 60 μg/mL to 0.000057 μg/mL were prepared. […] After a 30-minute incubation on ice, the cells were washed twice with cold FACS Buffer, and the cells were analyzed by flow cytometry (BD LSR Fortessa Flow Cytometer). The data were analyzed using the FlowJo software by sequentially gating the FSC-A vs. SSC-A, and SSC-H vs. SSC-A. Mean fluorescence intensity (MFI) values for PE were calculated, and the data were plotted by GraphPad Prism software.

[3] = target: T4, full-length ECD of cynomolgus monkey TIGIT (His-tagged) (cynomolgus monkey); assay: SPR Biacore T200, Protein A capture, 1:1 model, experiment #2
T4 construct: also called His-tagged cynomolgus monkey TIGIT; cyno TIGIT extracellular domain
Method: (§1) Briefly, surface plasmon resonance experiments were performed using a Biacore T200 instrument, and the association rate (kₐ), dissociation rate (kd), and dissociation constant (KD) were calculated from each experiment using a 1:1 binding model with Biacore T200 Evaluation Software.
(§2) Antibodies were captured using a 30-sec injection at a flow rate of 10 μl/min to reach about 500 resonance units (RUs). […] The sensor chip was regenerated between cycles with two 30-sec injections of 10 mM glycine, pH 1.5. Sensorgrams were evaluated and fit to a simple Langmuir 1:1 interaction model using the global data analysis option of BIAevaluation 3.0 software. Data quality was verified by visually inspecting deviations and curve fitting, and by evaluating the parameters of Rₘₐₓ, Chi2, and Tc.

[4] = target: T3, full-length ECD of human TIGIT …; assay: as above
Method: as §1, §2

[5] = target: T5, wild type full-length cynomolgus monkey TIGIT expressed on CHO cells (cynomolgus monkey, UniProt A0A7N9I9V4 89-312); assay: flow cytometry, blocking of CD155-Fc-PE binding to cynomolgus TIGIT CHO cells, geomean of 3 experiments
T5 construct: whole, on cells; also called cynomolgus TIGIT-CHO cells
Method: A 4× concentrated intermediate stock of each multispecific molecule was prepared in a microplate. Antibodies were serially diluted 1-to-4 in FACS buffer. […] Lastly, 25 μL of cynomolgus TIGIT-CHO cells, prepared as described above, were added to each well. After a 30-minute incubation on ice, the cells were washed twice with cold FACS Buffer, and the cells were analyzed by flow cytometry (BD LSR Fortessa Flow Cytometer). The data were analyzed using the FlowJo software by sequentially gating on the FSC-A vs. SSC-A and SSC-H vs. SSC-A. Mean fluorescence intensity (MFI) values for PE were calculated, and the data were plotted by GraphPad Prism software and analyzed as described above.

T5 sequence (A0A7N9I9V4 entry or part of it): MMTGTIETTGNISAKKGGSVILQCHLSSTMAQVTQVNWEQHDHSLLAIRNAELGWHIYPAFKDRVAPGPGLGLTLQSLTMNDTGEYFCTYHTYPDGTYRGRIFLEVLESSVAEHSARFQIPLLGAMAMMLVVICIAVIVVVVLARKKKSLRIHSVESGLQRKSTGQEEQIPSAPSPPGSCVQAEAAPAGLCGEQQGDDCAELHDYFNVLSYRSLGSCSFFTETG

EC50 (read off the curve) [1] [µg/mL] | EC50 (read off the curve) [2] [µg/mL] | Kd [3] [nM] | koff [3] [s⁻¹] | kon [3] [M⁻¹ s⁻¹] | Kd [4] [nM] | koff [4] [s⁻¹] | kon [4] [M⁻¹ s⁻¹] | IC50 [5] [µg/mL] | Binder
~1 | – | – | – | – | – | – | – | – | anti-TIGIT×CD96 multispecific molecule BA123 (bispecific antibody, human IgG1, kappa, lambda, copies: 1 + 1 + 1 + 1) heavy 1: QVQLVQSGAEVKKPGASVKVSCKASGYTFTSYGISWVRQAPGQGLEWMGWISAYNANTNYAQKLQGRVTMTTDTSTSTAYMELRSLRSDDTAVYYCARSAGVLGGMDVWGRGTLVTVSSASTKGPSVFPLAPSSKSTSGGTAALGCLVKDYFPEPVTVSWNSGALTSGVHTFPAVLQSSGLYSLSSVVTVPSSSLGTQTYICNVNHKPSNTKVDKRVEPKSCDKTHTCPPCPAPELLGGPDVFLFPPKPKDTLMISRTPEVTCVVVDVSHEDPEVKFNWYVDGVEVHNAKTKPREEQYNSTYRVVSVLTVLHQDWLNGKEYKCKVSNKALPAPIEKTISKAKGQPREPQVYTLPPSREEMTKNQVSLSCAVKGFYPSDIAVEWESNGQPENNYKTTPPVLDSDGSFFLVSKLTVDKSRWQQGNVFSCSVMHEALHNHYTQKSLSLSPG light 1: not shown heavy 2: EVQLVQSGAEVKKPGSSVKVSCKASGYTFASYGISWVRQAPGQGLEWMGGITPFFNRVDVAEKFQGRVTITADKSTSTAYIELSSLRSEDTAVYYCARDLRRGGVGDAFDIWGRGTLVTVSSASTKGPSVFPLAPSSKSTSGGTAALGCLVKDYFPEPVTVSWNSGALTSGVHTFPAVLQSSGLYSLSSVVTVPSSSLGTQTYICNVNHKPSNTKVDKRVEPKSCDKTHTCPPCPAPELLGGPDVFLFPPKPKDTLMISRTPEVTCVVVDVSHEDPEVKFNWYVDGVEVHNAKTKPREEQYNSTYRVVSVLTVLHQDWLNGKEYKCKVSNKALPLPEEKTISKAKGQPREPQVYTLPPSREEMTKNQVSLWCLVKGFYPSDIAVEWESNGQPENNYKTTPPVLDSDGSFFLYSKLTVDKSRWQQGNVFSCSVMHEALHNHYTQKSLSLSPG light 2: QSALTQPRSVSGSPGQSVTISCTGTSPDVGSHAYRSWYQQHPGKAPKLMIYEVSYRPSGVSNRFSGSKSGNTASLTISGLQAEDEADYYCSSYPPSSATVFGAGTKLTVLGQPKAAPSVTLFPPSSEELQANKATLVCLISDFYPGAVTVAWKADSSPVKAGVETTTPSKQSNNKYAASSYLSLTPEQWKSHRSYSCQVTHEGSTVEKTVAPTEC
– | ~0.008 | 4.06 | 0.00126 | 310000 | 0.548 | 0.000422 | 770000 | 0.243 | anti-TIGIT monospecific antibody BA148 (antibody, human IgG1, lambda, IgG1; also called anti-TIGIT IgG1 antibody BA148) heavy: EVQLVQSGAEVKKPGSSVKVSCKASGYTFASYGISWVRQAPGQGLEWMGGITPFFNRVDVAEKFQGRVTITADKSTSTAYIELSSLRSEDTAVYYCARDLRRGGVGDAFDIWGRGTLVTVSSASTKGPSVFPLAPSSKSTSGGTAALGCLVKDYFPEPVTVSWNSGALTSGVHTFPAVLQSSGLYSLSSVVTVPSSSLGTQTYICNVNHKPSNTKVDKRVEPKSCDKTHTCPPCPAPELLGGPDVFLFPPKPKDTLMISRTPEVTCVVVDVSHEDPEVKFNWYVDGVEVHNAKTKPREEQYNSTYRVVSVLTVLHQDWLNGKEYKCKVSNKALPLPEEKTISKAKGQPREPQVYTLPPSREEMTKNQVSLTCLVKGFYPSDIAVEWESNGQPENNYKTTPPVLDSDGSFFLYSKLTVDKSRWQQGNVFSCSVMHEALHNHYTQKSLSLSPGK light: QSALTQPRSVSGSPGQSVTISCTGTSPDVGSHAYRSWYQQHPGKAPKLMIYEVSYRPSGVSNRFSGSKSGNTASLTISGLQAEDEADYYCSSYPPSSATVFGAGTKLTVLGQPKAAPSVTLFPPSSEELQANKATLVCLISDFYPGAVTVAWKADSSPVKAGVETTTPSKQSNNKYAASSYLSLTPEQWKSHRSYSCQVTHEGSTVEKTVAPTEC

From patent US20240141039A1 (AGENUS, published 2024)
